The text below walks through data of patent US20160002619A1 (CORNELL UNIVERSITY, published 2016).

Data set [1] deals with the molecule itself. Put plainly: SEC-MALS, self-association. From the text: FIGS. 4A-F define the oligomeric species of GAC mutants. In particular, multi-angle light scattering profiles of WT-GAC (FIG. 4A), D391K-GAC (FIG. 4B), K316E-D391K-R459E-GAC (FIG. 4C), and K316E-GAC (FIG. 4D) were obtained following SEC and subsequent MALS analysis, where elution of each species was monitored using refractive index (left axis). Upon elution, light scattering data was collected and then used to calculate the molecular weight and polydispersity for the species eluted (right axis). Reference lines for the molecular weights of the monomer, dimer, and tetramer forms of GAC are included at 58 kD, 116 kD, and 230 kD respectively. […]
Purified GAC and GAC mutants were subjected to analytical size exclusion chromatography on a Superdex 200 10/300 GL column (GE Healthcare) equilibrated with 20 mM Tris-HCl pH 8.5, 200 mM NaCl for experiments in the absence of inorganic phosphate and 20 mM Tris-HCl pH 8.5, 200 mM NaCl, 50 mM K₂HPO₄ for experiments in the presence of inorganic phosphate at a temperature of 4° C. and flow rate of 0.4 ml/min. […] RMS radius and mass distribution (polydispersity) was analyzed using the ASTRA software using monomeric BSA (Sigma) to normalize the light scattering signal.
For orientation: SEC sorts molecules by how far they enter the pores of the column.

Data set [2] deals with the molecule itself. Put plainly: preparative Superdex200 gel filtration, self-association.
Data set [3] deals with the molecule itself. Put plainly: analytical gel filtration (Superdex 200 10/300 GL), self-association. The method, then: FIGS. 3A-C illustrate that WT GAC accesses monomer, dimer, and larger oligomeric species in a concentration and phosphate dependent manner.
Purified GAC and GAC mutants were subjected to analytical size exclusion chromatography on a Superdex 200 10/300 GL column (GE Healthcare) equilibrated with 20 mM Tris-HCl pH 8.5, 200 mM NaCl for experiments in the absence of inorganic phosphate and 20 mM Tris-HCl pH 8.5, 200 mM NaCl, 50 mM K₂HPO₄ for experiments in the presence of inorganic phosphate at a temperature of 4° C. and flow rate of 0.4 ml/min. Protein concentrations were prepared to be either 5 mg/mL or 0.5 mg/mL and centrifuged at 10,000×g for 10 minutes prior to injecting 200 μL of each sample. The same protocol was followed for MALS analysis. Briefly, 50 μL samples of 0.5, 5, or 10 mg/mL GAC was injected onto a WTC-030S5 size exclusion column (Wyatt technology) coupled to a static 18-angle light scattering detector (DAWN HELEOS-II) and a refractive index detector (OptiLab T-rEX, Wyatt Technology) kept at 23° C. The flow rate was kept at 1 mL/min. RMS radius and mass distribution (polydispersity) was analyzed using the ASTRA software using monomeric BSA (Sigma) to normalize the light scattering signal.

Data set [4] concerns the target T1, ALEXA FLUOR 488-labeled wild type mouse GAC (glutaminase C, residues 72-603) (mouse, UniProt D3Z7P3 72-555, ALEXA FLUOR 488 succinimidyl ester covalently attached to a lysine amino group within the glutaminase domain (exact residue not given)).
T1 construct: Recombinant from pET23a with an N-terminal His-tag and thrombin site; The tag was cleaved with thrombin; The oligomeric state (monomer/dimer/tetramer) depends on concentration
T1 sequence: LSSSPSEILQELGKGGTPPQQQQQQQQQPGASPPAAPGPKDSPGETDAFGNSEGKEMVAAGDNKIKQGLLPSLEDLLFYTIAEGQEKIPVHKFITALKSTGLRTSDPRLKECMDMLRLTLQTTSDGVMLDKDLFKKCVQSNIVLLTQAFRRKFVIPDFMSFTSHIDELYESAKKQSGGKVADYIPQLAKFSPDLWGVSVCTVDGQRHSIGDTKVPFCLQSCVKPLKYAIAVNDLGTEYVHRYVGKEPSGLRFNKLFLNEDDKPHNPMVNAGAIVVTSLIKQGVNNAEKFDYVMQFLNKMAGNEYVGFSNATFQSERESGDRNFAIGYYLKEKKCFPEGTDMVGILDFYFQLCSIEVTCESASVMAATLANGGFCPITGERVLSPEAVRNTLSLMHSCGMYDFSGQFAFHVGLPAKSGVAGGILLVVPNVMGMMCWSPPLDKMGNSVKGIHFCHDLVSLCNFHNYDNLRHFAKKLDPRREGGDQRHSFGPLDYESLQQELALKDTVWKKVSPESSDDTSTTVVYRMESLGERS
Put plainly: FRET time course: 200 nM QSY 9-labeled GAC added to 20 nM 488-WT-GAC. Here is the method: Upon elution, light scattering data was collected and then used to calculate the molecular weight and polydispersity for the species eluted (right axis). Reference lines for the molecular weights of the monomer, dimer, and tetramer forms of GAC are included at 58 kD, 116 kD, and 230 kD respectively. […] In FIG. 4F, WT GAC and GAC mutants were titrated and added to an assay of 20 mM glutamine in the absence of phosphate to show no concentration dependent activation was observed of purified GAC mutants.
Fluorescence experiments were performed using a Varian Carry Eclipse Fluorometer in the counting mode. Excitation and emission wavelengths were 490 and 520 nm, respectively. Experiments were all prepared as one-mL samples and stirred continuously at 20° C. in 50 mM Tris-Acetate pH 8.5, 0.1 mM ethylenediaminetetraacetic acid (EDTA). […] Both BPTES and 968 were prepared in DMSO, and appropriate dilutions were made so that less than 2% (v/v) DMSO was added to an experimental sample.

Data set [5] addresses T2, ALEXA FLUOR 488-labeled wild type mouse KGA (kidney type glutaminase isoform 1, residues 72-674) (mouse, UniProt D3Z7P3 72-674, ALEXA FLUOR 488 succinimidyl ester covalently attached to a lysine amino group (exact residue not given)).
T2 construct: Recombinant; His-tag cleaved with thrombin
T2 sequence: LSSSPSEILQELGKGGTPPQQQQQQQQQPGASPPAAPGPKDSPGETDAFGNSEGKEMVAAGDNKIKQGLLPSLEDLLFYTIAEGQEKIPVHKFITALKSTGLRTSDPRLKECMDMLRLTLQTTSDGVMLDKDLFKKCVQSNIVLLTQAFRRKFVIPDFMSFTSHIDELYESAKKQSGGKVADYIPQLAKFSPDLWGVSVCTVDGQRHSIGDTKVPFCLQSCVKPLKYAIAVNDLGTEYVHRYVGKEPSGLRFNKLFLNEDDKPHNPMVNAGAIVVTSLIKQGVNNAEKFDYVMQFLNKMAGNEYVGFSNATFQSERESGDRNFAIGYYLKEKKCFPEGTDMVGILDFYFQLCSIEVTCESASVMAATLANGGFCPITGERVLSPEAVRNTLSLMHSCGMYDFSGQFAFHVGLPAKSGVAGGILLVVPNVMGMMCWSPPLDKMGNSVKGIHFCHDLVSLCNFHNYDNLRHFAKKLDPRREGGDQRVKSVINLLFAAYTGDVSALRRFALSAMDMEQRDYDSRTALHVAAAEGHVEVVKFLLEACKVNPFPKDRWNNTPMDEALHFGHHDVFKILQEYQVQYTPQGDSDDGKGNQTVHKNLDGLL
As to the kind of experiment: FRET time course: quenching of 10 nM 488-KGA fluorescence by QSY 9-KGA, then 10-fold excess unlabeled WT-KGA [panel a]. The method, then:
FIGS. 9A-B illustrate that the alternate splice variant KGA behaves like GAC in a FRET assay. […] After 5 minutes, the appropriate volume of 33.25 μM (for concentrations up to 200 nM labeled protein) or 69.5 μM (for concentrations above 200 nM labeled protein) unlabeled WT-KGA was added to make the final concentration of unlabeled KGA to be ten-times the concentration of labeled KGA.

Where a chain is given by its changes, count along the chain named. In names and notes the source's numbering stands.

B1: unlabeled wild type mouse GAC (glutaminase C, residues 72-603) (enzyme)
chain: T1 sequence
notes: Recombinant; His-tag cleaved with thrombin; The oligomeric state depends on concentration and phosphate; also called WT-GAC; WT GAC
Regarding B1, the “concentration dependent activation of WT-GAC (glutaminase activity, two-step assay, no phosphate)” value is recorded as “The quenching was shown to be concentration dependent with the resultant FRET titration curve strongly correlating with the concentration dependent activation of WT-GAC”; the “glutaminase specific activity (µM Glu/µM GAC min) of 50 nM WT-GAC, two-step assay, 20 mM glutamine, phosphate varied” value is “specific activity (filled circles) rises from about 500 near 3 mM phosphate to about 5000 at 20 mM and 8000 at 45 mM; it is flat at about 8700 from 67 to 150 mM”; the “glutaminase specific activity (µM Glu/µM GAC min), two-step assay, 20 mM glutamine, no phosphate” value was “specific activity (filled circles) rises from about 100 at 50 nM GAC to about 290 at 230 nM, 410 at 510 nM and about 460-470 at 770 and 1150 nM, lying on the FRET points”. The binding result in data set [1] is reported as “binds”.

B2: unlabeled mouse GAC K316E/D391K/R459E (constitutive monomer mutant) (enzyme)
chain: T1 sequence with K245E, D320K, R388E
notes: also called K316E-D391K-R459E-GAC; monomeric GAC (K316E-D391K-R459E)
With B2, the “concentration dependent activation (glutaminase activity, 20 mM glutamine, no phosphate)” value is “no concentration dependent activation was observed of purified GAC mutants”. Also, the binding result in data set [2] is “no binding”.

B3: unlabeled mouse GAC D391K (constitutive dimer mutant) (enzyme)
chain: T1 sequence with D320K
notes: also called D391K-GAC
On to B3, for which the “concentration dependent activation (glutaminase activity, 20 mM glutamine, no phosphate)” value is listed as “no concentration dependent activation was observed of purified GAC mutants”. In addition, in data set [3], the binding result is listed as “binds”.

B4: Δ72 K316E-GAC (enzyme)
glutaminase C subunit: T1 sequence with K245E
notes: Unlabeled single mutant of the mouse GAC construct
Take B4: in data set [1], the binding result is “binds”.

B5: QSY 9-labeled mouse GAC K316E/D391K/R459E (constitutive monomer mutant) (enzyme)
chain: T1 sequence with K245E, D320K, R388E
modifications: QSY 9 succinimidyl ester covalently attached to a lysine amino group (exact residue not given)
notes: also called QSY 9-K316E-D391K-R459E; QSY 9-GAC (K316E, D391K, R459E) monomer mutant
Turning to B5, the binding result in data set [4] is listed as “no binding (tested: 200 nM)”.

B6: QSY 9-labeled wild type mouse KGA (kidney type glutaminase isoform 1, residues 72-674) (enzyme)
chain: T2 sequence
modifications: QSY 9 succinimidyl ester covalently attached to a lysine amino group (exact residue not given)
notes: Recombinant; His-tag cleaved with thrombin; also called QSY 9-KGA
Turning to B6, the binding result in data set [5] is recorded as “binds”.
